Source: US9994628B2, “Peptides and combination of peptides for use in immunotherapy against various tumors” (IMMATICS BIOTECHNOLOGIES GMBH, priority 2015, dated 2018)

Biological target: HLA-A*02:01 (Homo sapiens, UniProt P04439, D140Y/D185E/D98H/E176V/E277Q/G131W/G231S/I119V/I121R/I166T/I218V/L300P/L318F/N151K/N90K/P208A/P217A/Q86G/Q94H/R138H/R169H/T345S)
Assay: MHC binding assay: UV-ligand exchange and β2m ELISA (peptide exchange yield, Table 7)
Conditions: binding of HLA-class I restricted peptides to HLA-A*02:01, UV-ligand exchange
In short: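 Peptide-MHC complexes made by UV-mediated exchange of a cleavable ligand for test peptide; exchange yield measured by ELISA detecting β2m of stabilized complexes captured on streptavidin, using refolded HLA-A*02:01/MLA-001 monomer standards (15-500 ng/ml). Samples diluted 100-fold; HRP anti-β2m, TMB, absorbance 450 nm.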

Substance	Peptide exchange (MHC class I binding score, peptide exchange yield)
161 (NLLDENVCL; listed as Homo sapiens) [compound 161]	++++ (≥75% = ++++)
75 (ALLDGALQL; listed as Homo sapiens) [compound 75]	+++ (≥50% = +++)
138 (GIINKLVTV; listed as Homo sapiens) [compound 138]	++ (≥20% = ++)
69 (LKVLKADVVL; listed as Homo sapiens) [compound 69]	++ (≥20% = ++)
54 (YLVPGLVAA; listed as Homo sapiens) [compound 54]	+++ (≥50% = +++)
115 (ILHGEVNKV; listed as Homo sapiens) [compound 115]	++ (≥20% = ++)
132 (ALLNNVIEV; listed as Homo sapiens) [compound 132]	+++ (≥50% = +++)
233 (SLFESLEYL; listed as Homo sapiens) [compound 233]	+++ (≥50% = +++)
68 (QLMNLIRSV; listed as Homo sapiens) [compound 68]	+++ (≥50% = +++)
279 (VLMDEGAVLTL; listed as Homo sapiens) [compound 279]	++ (≥20% = ++)
97 (KLFEKSTGL; listed as Homo sapiens) [compound 97]	+++ (≥50% = +++)
59 (ALADGIKSFLL; listed as Homo sapiens) [compound 59]	+++ (≥50% = +++)
86 (SLFSNIESV; listed as Homo sapiens) [compound 86]	+++ (≥50% = +++)
106 (VLLGSVVIFA; listed as Homo sapiens) [compound 106]	++ (≥20% = ++)
11 (LLDPKTIFL; listed as Homo sapiens) [compound 11]	+++ (≥50% = +++)
7 (ALLQALMEL; listed as Homo sapiens) [compound 7]	+++ (≥50% = +++)
181 (LLWAPTAQA; listed as Homo sapiens) [compound 181]	+++ (≥50% = +++)
53 (AQHLSTLLL; listed as Homo sapiens) [compound 53]	+ (≥10% = +)
190 (SLSTELFKV; listed as Homo sapiens) [compound 190]	+++ (≥50% = +++)
256 (FLNDIFERI; listed as Homo sapiens) [compound 256]	+++ (≥50% = +++)
261 (GLAALAVHL; listed as Homo sapiens) [compound 261]	+++ (≥50% = +++)

Substance	Peptide exchange (MHC class I binding score, peptide exchange yield)
166 (LLGDSSFFL; listed as Homo sapiens) [compound 166]	+++ (≥50% = +++)
247 (NLLIDDKGTIKL; listed as Homo sapiens) [compound 247]	++ (≥20% = ++)
282 (SLYALHVKA; listed as Homo sapiens) [compound 282]	++ (≥20% = ++)
266 (FLLDKPQDL; listed as Homo sapiens) [compound 266]	++ (≥20% = ++)
76 (FTAEFLEKV; listed as Homo sapiens) [compound 76]	+++ (≥50% = +++)
99 (TLFGIQLTEA; listed as Homo sapiens) [compound 99]	+++ (≥50% = +++)
271 (VLIEYNFSI; listed as Homo sapiens) [compound 271]	+++ (≥50% = +++)
227 (SEMEELPSV; listed as Homo sapiens) [compound 227]	+ (≥10% = +)
218 (SLTGANITV; listed as Homo sapiens) [compound 218]	+++ (≥50% = +++)
157 (ILQDGQFLV; listed as Homo sapiens) [compound 157]	++ (≥20% = ++)
165 (SLLDYEVSI; listed as Homo sapiens) [compound 165]	+++ (≥50% = +++)
136 (LLWDAPAKC; listed as Homo sapiens) [compound 136]	+++ (≥50% = +++)
28 (IKVTDPQLLEL; listed as Homo sapiens) [compound 28]	++ (≥20% = ++)
213 (ILAVDGVLSV; listed as Homo sapiens) [compound 213]	+++ (≥50% = +++)
163 (GLEERLYTA; listed as Homo sapiens) [compound 163]	++ (≥20% = ++)
194 (KLLEEVQLL; listed as Homo sapiens) [compound 194]	++ (≥20% = ++)
96 (ALDTTRHEL; listed as Homo sapiens) [compound 96]	++ (≥20% = ++)
285 (MLLDTVQKV; listed as Homo sapiens) [compound 285]	+++ (≥50% = +++)
229 (YLYELEHAL; listed as Homo sapiens) [compound 229]	++ (≥20% = ++)
142 (LLDAAHASI; listed as Homo sapiens) [compound 142]	++ (≥20% = ++)
20 (ALVEKGEFAL; listed as Homo sapiens) [compound 20]	++ (≥20% = ++)

Substance	Peptide exchange (MHC class I binding score, peptide exchange yield)
83 (GLLENSPHL; listed as Homo sapiens) [compound 83]	++ (≥20% = ++)
80 (VLTGQVHEL; listed as Homo sapiens) [compound 80]	+++ (≥50% = +++)
1 (KLQEKIQEL; listed as Homo sapiens) [compound 1]	++++ (≥75% = ++++)
92 (RLFEEVLGV; listed as Homo sapiens) [compound 92]	++++ (≥75% = ++++)
249 (YLYQILQGI; listed as Homo sapiens) [compound 249]	+++ (≥50% = +++)
248 (VLMQDSRLYL; listed as Homo sapiens) [compound 248]	+++ (≥50% = +++)
252 (SLMEKNQSL; listed as Homo sapiens) [compound 252]	++ (≥20% = ++)
180 (RLYEEEIRI; listed as Homo sapiens) [compound 180]	+++ (≥50% = +++)
126 (QLREAFEQL; listed as Homo sapiens) [compound 126]	+++ (≥50% = +++)
52 (TIGIPFPNV; listed as Homo sapiens) [compound 52]	++ (≥20% = ++)
67 (FLIENLLAA; listed as Homo sapiens) [compound 67]	+++ (≥50% = +++)
206 (GLDAFRIFL; listed as Homo sapiens) [compound 206]	++++ (≥75% = ++++)
4 (VLFGELPAL; listed as Homo sapiens) [compound 4]	+++ (≥50% = +++)
254 (ALGDKFLLRV; listed as Homo sapiens) [compound 254]	++ (≥20% = ++)
238 (HLQEKLQSL; listed as Homo sapiens) [compound 238]	++ (≥20% = ++)
102 (GLYPVTLVGV; listed as Homo sapiens) [compound 102]	+++ (≥50% = +++)
85 (KLLDKPEQFL; listed as Homo sapiens) [compound 85]	++ (≥20% = ++)
167 (LVVDEGSLVSV; listed as Homo sapiens) [compound 167]	+++ (≥50% = +++)
185 (TLYQGLPAEV; listed as Homo sapiens) [compound 185]	++ (≥20% = ++)
36 (TVLQELINV; listed as Homo sapiens) [compound 36]	+++ (≥50% = +++)
